The assay concerns the target HIV-1 P7L-S40A-Gag, full-length (HIV-1). Put plainly: two-hybrid; Matchmaker GAL4 system, S. cerevisiae Y190, quantitative liquid beta-galactosidase assay; units normalized to P7L with Alix (panel B) or WT Gag with Alix (panel C).

In article PMC3907034 one finds fold increase of binding (beta-galactosidase units) against P7L-Gag with Alix data, which are given here for one substance.

With “full-length Alix (from UniProt Q8WUM4 1-868) (natural protein)”, the fold increase of binding (beta-galactosidase units) against P7L-Gag with Alix was 7 fold.
